Measured values taken from US20220040319A1 (Regeneron, published 2022).

B1: H4H13318P2 (antibody, human IgG4, V domains shown)
VH: QVQLVESGGGVVQPGRSLRLSCVASGFSFSNFGMHWVRQAPGKGLEWVAIIWYDGSNKYYSDSVKGRFTISRDNSKNTLYLQMNSLRVDDTAVYYCARFDRWKFDAFDIWGQGTMVTVSS
VL: not shown
B2: H4H13295P2 (antibody, human IgG4, V domains shown)
VH: QVQLVESGGGVVQPGRSLRVSCVVSGFTFSSFGMHWVRQAPDKGLEWVAVIWYDGSNDYYSDSVKGRFTISRDNSKNTLFLQMNRLRAEDTAVYYCARANNWNRFDAFDLWGQGTMVTVSS
VL: not shown
B3: H4H14635D-Maytansinoid A (bispecific antibody, V domains shown)
VH 1: B2 VH
VH 2: EVQLVESGGGLVQPGGSLRLSCAASGFIVTTNYMTWLRQAPGKGLEWVSLIYSSGHTYYADSVKGRFTISRHNSKNTLYLQMDSLRAEDTAVYYCASAFAADVFDIWGQGTMVTVSS
VL: not shown
modifications: SMCC-DM1 (Maytansinoid A) linker-payload conjugated to the antibody; residues not stated
B4: H4H14635D-Maytansinoid B (bispecific antibody, V domains shown)
VH 1: B2 VH
VH 2: B3 VH 2
VL: not shown
modifications: Maytansinoid B (Compound 1, FIG. 20) linker-payload conjugated to the antibody; residues not stated
B5: H4H13290P2 (antibody, human IgG4, V domains shown)
VH: QVQLQESGPGLVKPSETLSLTCTVSGDSISSYYWTWIRQPPGKGLEWIGYIFYRGGTTYNPSLKSRVTISVDTSKNQFSLKLRSVTAADTAVYYCARGDDLLVVTSVYWYIDLWGRGTLVTVSS
VL: not shown
B6: H4H13325P2 (antibody, human IgG4, V domains shown)
VH: EVQLLESGGGWVQPGGSLRLSCAASGFAFSNYAMNWVRQTPGKGLEWVSVISSSGGNTYYADSVKGRFAISRDNSRDTLHLQMNRLRVEDTAVYYCAKEIRPYYDLSYYYGMDVWGQGTTVTVSS
VL: not shown
B7: H4H13301P2 (antibody, human IgG4, V domains shown)
VH: QVQLVESGGGVVQPGTSLRLSCVASGFTFRNFGMHWVRQAPGKGLEWVANIWFDGSNENYVESIQGRFTISRDNSKNTLNLQMNSLRAEDSAVYYCVREGILGTTNPYDAFDVWGQGTMVTVSS
VL: not shown
B8: H1H13301P2 (antibody, IgG1, V domains shown)
VH: B7 VH
VL: not shown
B9: H4H13316P2 (antibody, human IgG4, V domains shown)
VH: EVQLVESGGGLVQPGGSLRLSCAASGFTFRSYVMSWFRQAPGKGLEWVSGMSGSGGSTSYADSVKGRFTISRDNSKNTLYLLMNSLRTEDTAVYYCAKENGANWNYGYYGMDVWGQGTTVTVSS
VL: not shown
B10: H1H13316P2 (antibody, IgG1, V domains shown)
VH: B9 VH
VL: not shown
B11: H4H13302P2 (antibody, human IgG4, V domains shown)
VH: QVQLVESGGGVVQPGRSLRLSCAASGFTFSNFGMHWVRQAPGKGLEWVAGIWFDGSNKNYIDSVKGRFTISRDNSKNTLYLQMNSLRAEDTAVYYCAREGYDSGTDYIPYDIFDIWGQGTMVTVSS
VL: not shown
B12: H4H13319P2 (antibody, human IgG4, V domains shown)
VH: QVQLVESGGGVVQPGRSLRLSCAASGFTFSSFAMHWVRQAPGKGLEWVAVIWYDGSNDYYAASVKGRFTISRDNSKNTLYLEMNRLRAEDTAVYHCARDNWNYWGGMDVWGQGTTVTVSS
VL: not shown
B13: H4H13306P2 (antibody, human IgG4, V domains shown)
VH: EVQLVESGGGLVQPGTSLRLSCAASGFTFDDYAMHWVRQAPGKGLEWVSGITWNSYNIDYADSVKGRFTISRDNAKNSLYLQMNSLRAEDTALYYCAKDDDYSNYVYFDYWGQGTLVTVSS
VL: not shown
B14: H4H13311P2 (antibody, human IgG4, V domains shown)
VH: QVQLVESGGGVVQPGRSLRLSCAASGFTFSSYAMHWVRQAPGRGLEWVAVIWHDGDVEYYVDSVKDRFTISRDNSKSTLYLQMNSLRAEDTALYYCAREAWDLLRPFDYWGQGTLVTVSS
VL: not shown
B15: H4H13291P2 (antibody, human IgG4, V domains shown)
VH: QVQLVESGGGVVQPGGSLRLSCAASGFTFSGYGMHWVRQAPGKGLEWMAVIWYDGSNDYYPDSVKGRFTISRDNSKNTLYLQMNSLRVEDTAVYYCARDAWDLLRSFDYWGQGTLVTVSS
VL: not shown
B16: H4H13313P2 (antibody, human IgG4, V domains shown)
VH: QVQLVESGGGVVQPGRSLRLSCSASGFSFSHFGMHWVRQVPGGGLEWVTSIWFDGSNRYYADSLKGRFTISRDNSKNTLYLEMNSLRAEDTAVYYCVREGILGTTNPYDVFDVWGQGTMVTVSS
VL: not shown
B17: H4H13312P2-Maytansinoid A (antibody, IgG4, V domains shown)
VH: B3 VH 2
VL: not shown
modifications: SMCC-DM1 (Maytansinoid A) linker-payload conjugated to the antibody; residues not stated
B18: H4H13312P2-Maytansinoid B (antibody, IgG4, V domains shown)
VH: B3 VH 2
VL: not shown
modifications: Maytansinoid B (Compound 1, FIG. 20) linker-payload conjugated to the antibody; residues not stated
B19: H4H13300P2 (antibody, human IgG4, V domains shown)
VH: QVQLVESGGGVVQPGRSLRLSCAVSGFTFSSYGMHWVRQAPGKGLEWVANIWYDGTNDYYPYSVKGRFTISRDNSQNTLYLQMNSLRAEDTAVYYCAREDFINYRSFDYWGQGTLVTVSS
VL: not shown
B20: H4H13309P2 (antibody, human IgG4, V domains shown)
VH: QVQLVQSGTEVKEPGASVKVSCKASGYSFTTYGISWLRQAPGQGLEWMGWISTYNGDTISAQMLQDRVTLTADTSTRTAYMELRSLRSDDTAVYYCARGHEYDSLVYSYWGQGTLVTVSS
VL: not shown

Tests used:
Test in all cases: cell-based or functional assay
human MET on cells [1] = biological target: T1, human MET on cells (human, UniProt P08581 25-1390); on % Inhibition, HEK293/SRE-Luc Blocking Activity (HGF, 1 h mAb pre-bind): test concentration or dose not given here
T1 sequence (P08581 25-1390 limits assumed, form in doubt): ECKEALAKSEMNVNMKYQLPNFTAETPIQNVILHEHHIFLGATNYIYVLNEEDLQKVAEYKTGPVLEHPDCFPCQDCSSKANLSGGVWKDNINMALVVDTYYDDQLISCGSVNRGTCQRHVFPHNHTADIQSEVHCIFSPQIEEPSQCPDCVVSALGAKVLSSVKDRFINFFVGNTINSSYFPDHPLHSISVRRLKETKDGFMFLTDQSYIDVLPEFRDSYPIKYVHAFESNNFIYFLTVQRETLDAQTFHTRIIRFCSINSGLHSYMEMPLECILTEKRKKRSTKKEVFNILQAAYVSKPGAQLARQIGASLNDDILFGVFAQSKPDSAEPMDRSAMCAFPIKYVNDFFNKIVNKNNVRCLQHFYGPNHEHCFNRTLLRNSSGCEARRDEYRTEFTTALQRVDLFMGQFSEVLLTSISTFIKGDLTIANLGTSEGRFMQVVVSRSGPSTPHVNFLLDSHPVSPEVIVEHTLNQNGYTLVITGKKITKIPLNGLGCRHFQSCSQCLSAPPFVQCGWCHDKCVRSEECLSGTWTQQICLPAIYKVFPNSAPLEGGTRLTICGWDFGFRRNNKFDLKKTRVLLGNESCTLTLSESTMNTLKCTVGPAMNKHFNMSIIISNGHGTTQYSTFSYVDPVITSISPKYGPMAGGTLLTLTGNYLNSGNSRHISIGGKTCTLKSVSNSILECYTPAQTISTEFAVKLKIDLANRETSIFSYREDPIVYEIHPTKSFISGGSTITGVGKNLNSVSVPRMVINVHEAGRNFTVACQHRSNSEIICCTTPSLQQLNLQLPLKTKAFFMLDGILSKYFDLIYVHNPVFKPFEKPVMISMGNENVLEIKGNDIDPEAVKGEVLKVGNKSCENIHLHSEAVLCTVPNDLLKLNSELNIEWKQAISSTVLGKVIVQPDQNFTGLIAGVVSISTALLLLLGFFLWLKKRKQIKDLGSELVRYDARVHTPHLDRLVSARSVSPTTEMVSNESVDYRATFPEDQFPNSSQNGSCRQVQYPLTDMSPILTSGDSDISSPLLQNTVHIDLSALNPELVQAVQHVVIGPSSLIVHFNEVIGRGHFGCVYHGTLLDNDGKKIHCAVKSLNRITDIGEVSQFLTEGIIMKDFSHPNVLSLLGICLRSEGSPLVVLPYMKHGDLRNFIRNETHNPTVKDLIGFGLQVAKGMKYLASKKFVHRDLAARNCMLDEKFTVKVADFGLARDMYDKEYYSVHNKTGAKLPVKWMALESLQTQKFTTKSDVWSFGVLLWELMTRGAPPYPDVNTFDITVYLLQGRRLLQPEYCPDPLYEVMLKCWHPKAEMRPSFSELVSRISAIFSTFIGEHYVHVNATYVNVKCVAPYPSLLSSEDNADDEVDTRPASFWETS

human MET on cells [2] = biological target: T1, human MET on cells; remark: listed apart in the source; on % Inhibition, HEK293/SRE-Luc Blocking Activity (HGF, 1 h mAb pre-bind): test concentration or dose not given here
human MET on cells [3] = biological target: T1, human MET on cells; remark: listed apart in the source; on % Inhibition, HEK293/SRE-Luc Blocking Activity (HGF, 1 h mAb pre-bind): test concentration or dose not given here

Binder | % Growth Inhibition, SNU5 cells (human MET on cells [1]) [%] | IC50, SNU5 growth (human MET on cells [1]) [nM] | % Inhibition, HEK293/SRE-Luc Blocking Activity (HGF, 1 h mAb pre-bind) (human MET on cells [2]) [%] | Fold Response, Ligand (HGF)-Independent HEK293/SRE-Luc Activation (human MET on cells [2]) [fold] | IC50, HEK293/SRE-Luc Blocking Activity (HGF, 1 h mAb pre-bind) (human MET on cells [2]) [nM] | EC50, Ligand (HGF)-Independent HEK293/SRE-Luc Activation (human MET on cells [2]) [nM] | IC50, 6-day in vitro cytotoxicity, A549 (human MET on cells [3]) [nM] | IC50, 6-day in vitro cytotoxicity, EBC-1 (human MET on cells [3]) [nM] | IC50, 6-day in vitro cytotoxicity, Hs746t (human MET on cells [3]) [nM] | Max % Kill, 6-day in vitro cytotoxicity, A549 (human MET on cells [3]) [%] | Max % Kill, 6-day in vitro cytotoxicity, EBC-1 (human MET on cells [3]) [%] | Max % Kill, 6-day in vitro cytotoxicity, Hs746t (human MET on cells [3]) [%]
B1 | 18 | 0.051 | 77 | 3.1 | 0.1 |  |  |  |  |  |  | 
B2 | 30 |  | 70 | 2.8 | 0.055 | 0.3 |  |  |  |  |  | 
B3 |  |  |  |  |  |  | 6.78 | 0.76 | 1.76 | 91 | 96 | 86
B4 |  |  |  |  |  |  | 21.4 | 0.26 | 2.32 | 72 | 96 | 89
B5 | 12 |  | 56 | 9.8 | < 0.002 | < 0.002 |  |  |  |  |  | 
B6 | 57 | 0.044 | 69 | 4.3 | 0.013 | 0.19 |  |  |  |  |  | 
B7 | 33 | 0.074 | 40 | 1.6 | 1.5 |  |  |  |  |  |  | 
B8 | 33 | 0.1 | 42 | 1.4 | 3.3 |  |  |  |  |  |  | 
B9 | 53 | 0.1 | 74 | 2.3 | 0.0078 | 0.047 |  |  |  |  |  | 
B10 | 30 | 0.2 | 86 | 1.7 | 0.04 |  |  |  |  |  |  | 
B11 | 40 | 0.11 | 45 | 1.8 | 1.6 |  |  |  |  |  |  | 
B12 | 23 | 0.1 | 67 | 4.8 | 0.052 | 0.18 |  |  |  |  |  | 
B13 | 28 | 0.071 |  |  |  | 0.013 |  |  |  |  |  | 
B14 | 8 |  | 62 | 5.2 | 0.035 | 0.3 |  |  |  |  |  | 
B15 | 24 |  | 61 | 2.7 | 0.13 | 0.39 |  |  |  |  |  | 
B16 | 34 | 0.044 | 47 | 1.2 | 2.3 |  |  |  |  |  |  | 
B17 |  |  |  |  |  |  | 18.3 | 0.39 | 1.59 | 89 | 95 | 87
B18 |  |  |  |  |  |  | 27.1 | 0.07 | 0.89 | 85 | 95 | 90
B19 | 16 |  | 69 | 2.8 | 0.12 | 0.48 |  |  |  |  |  | 
B20 | 22 | 0.1 | 77 | 9.2 | 0.2 | 0.39 |  |  |  |  |  | 
